Laboratory results as given in publication PMC12800186, “Intelectin-2 is a broad-spectrum antimicrobial lectin” (Nature Communications, 2026).
Where “and” joins values, the source holds several entries; their conditions need not be identical. Identical values can stand only once.

B1: StrepII-tagged human intelectin-2 (A177S, C311G) (natural protein, UniProt Q8WWU7 27-325, looked up)
chain: AAASSLEMLSREFETCAFSFSSLPRSCKEIKERCHSAGDGLYFLRTKNGVVYQTFCDMTSGGGGWTLVASVHENDMRGKCTVGDRWSSQQGNKADYPEGDGNWANYNTFGSAEAATSDDYKNPGYYDIQAKDLGIWHVPNKSPMQHWRNSSLLRYRTNTGFLQRLGHNLFGIYQKYPVKYRSGKCWNDNGPAIPVVYDFGDAKKTASYYSPYGQREFVAGFVQFRVFNNERAANALCAGIKVTGCNTEHHCIGGGGFFPQGKPRQCGDFSAFDWDGYGTHVKSSGSREITEAAVLLFYR
notes: Human intelectin-2 (hItln2, ITLN2), cDNA AY358905; secreted from HEK293 cells; mass and extinction coefficient were calculated without the signal peptide; A177S introduces a glycosylation site, C311G removes an unpaired cysteine; For low pH and low salt experiments the protein was exchanged into PIPES buffer, pH 5.5; also called hItln2; StrepII-hItln2; source: suspension-adapted HEK293 cells, …
B2: StrepII-tagged mouse intelectin-2 (natural protein, UniProt Q80ZA0 20-313, looked up)
chain: AEENLDTNRWGNSFFSSLPRSCKEIKQEDTKAQDGLYFLRTENGVIYQTFCDMTTAGGGWTLVASVHENNLRGRCTVGDRWSSQQGNRADYPEGDGNWANYNTFGSAEGATSDDYKNPGYFDIQAENLGIWHVPNNSPLHTWRNSSLLRYRTFTGFLQRLGHNLFGLYQKYPVKYGEGKCWTDNGPAFPVVYDFGDAQKTASYYSPSGRNEFTAGYVQFRVFNNERAASALCAGVRVTGCNTEHHCIGGGGFFPEFDPEECGDFAAFDANGYGTHIRYSNSREITEAAVLLFYR
modifications: glycosylated (N-glycosylation examined with PNGase F)
notes: Mouse intelectin-2 (mItln2), GenBank AAO60215, UniProt Q80ZA0; amplified from the start to the stop codon and secreted from HEK293 cells; mass and extinction coefficient were calculated without the signal peptide; Non-covalent oligomers of variable size; also called mItln2; strep-mItln2; source: suspension-adapted HEK293 cells, transient transfection, purified from the expression medium …

Assays:
[1] = target: the molecule itself; experiment: not stated; recombinant StrepII-hItln2; covalent trimers and higher-order oligomers (Supplementary Fig. 8E, F)
[2] = target: the molecule itself; experiment: cross-linking; 1 mg/mL mItln2 in HEPES/EDTA buffer with BS3 (0.1-5 mM), RT, 30 min; SDS-PAGE with DTT

| Protein | stoichiometry N [1] | stoichiometry N [2] |
| --- | --- | --- |
| B1 | ≥ 3 |  |
| B2 |  | 2 and 3 and 6 |
